Measurements published in patent US20210300999A1 (VANDERBILT UNIVERSITY, published 2021).

Key:
SARS-CoV-2 RBD (Table A) = molecular target: T1, SARS-CoV-2 RBD (Table A) (SARS-CoV-2, UniProt P0DTC2 319-541); experiment: ELISA, purified IgG
T1 construct: domain: RBD

SARS-CoV-2 NTD (Table A) = molecular target: T2, SARS-CoV-2 NTD (Table A) (SARS-CoV-2, UniProt P0DTC2 14-305); experiment: ELISA, purified IgG
T2 construct: domain: NTD

[1] = molecular target: SARS-CoV Spike trimer (Table A) (SARS-CoV, UniProt P59594 14-1190); experiment: ELISA, purified IgG
[2] = molecular target: T3, SARS-CoV-2 spike (S) glycoprotein on virus (neutralization assays) (SARS-CoV-2, UniProt P0DTC2 14-1273); experiment: cell-based or functional assay
[3] = molecular target: T3, SARS-CoV-2 spike (S) glycoprotein on …; experiment: cell-based or functional assay; remark: listed apart in the source
[4] = molecular target: T4, SARS-CoV-2 S receptor-binding domain (SRBD), residues 319-541 (SARS-CoV-2, UniProt P0DTC2 319-541); experiment: ELISA on coated antigen
T4 construct: range 319-541

| Binder | ELISA OD 450 nm (SARS-CoV-2 RBD (Table A)) [OD 450 nm] | ELISA OD 450 nm (SARS-CoV-2 NTD (Table A)) [OD 450 nm] | ELISA OD 450 nm [1] [OD 450 nm] | Nano-luciferase virus reduction test, SARS-CoV-2, IC50 [2] [µg/mL] | SARS-CoV-2 focus reduction test, IC50 [2] [µg/mL] | Neutralization IC50, ng/mL (FRNT, authentic SARS-CoV-2) [3] [ng/mL] | EC50 [4] [µg/mL] |
| --- | --- | --- | --- | --- | --- | --- | --- |
| COV2-2094 (antibody, V domains shown) VH: EVQLVESGGGVVRPGGSLRLSCAASGFIFDDYDMTWVRQAPGKGLEWVSGINWNGGSTGYADSVKGRFTISRDNAKNSLYLQMNSLRAEDTALYHCAVIMSPIPRYSGYDWAGDAFDIWGQGTMVTVSS VL: SSELTQDPAVSVALGQTVRITCQGDSLRSYYASWYQQKPGQVPILVIYDKNNRPSGIPDRFSGSSSGNTASLTITGAQAEDEADYYCNSRDSSGNAVVFGGGTKLTVL | 4.3 | 0.1 | 4.1 | < 0.05 | 0.151 | 154 | 0.0014 |
| COV2-2838 (antibody, V domains shown) VH: QMQLVQSGPEVKKPGTSVKVSCKASGFTFMSSAVQWVRQARGQRLEWIGWIVIGSGNTNYAQKFQERVTITRDMSTSTAYMELSSLRSEDTAVYYCAAPYCSSISCNDGFDIWGQGTMVTVSS VL: not shown |  | 0.12 |  |  | 0.014 |  |  |
| COV2-2952 (antibody, V domains shown) VH: EVQLVESGGGLVQPGGSLRLSCAASGLTVRSNYMTWVRQTPGKGLEWVSVIYSGGSTFYADSVKGRFTISRDNSKNTVYLQMNSLRAEDTAVYYCARDLVTYGLDVWGQGTTVTVSS VL: DIQLTQSPSFLSASVGDRVTITCRASQGISNYLAWYQQKPGTAPNLLIYAASTLQSGVPSRFSGSGSGTEFTLTISSLQPEDFATYYCQLLNSHPLTFGQGTRLEIK |  | 0.1 |  |  | 0.089 |  |  |
| COV2-2514 (antibody, V domains shown) VH: EVQLVESGGGVVRPGGSLRLSCAASGFIFDDYDMTWVRQAPGKGLEWVSGINWNGGSTGYADSVKGRFTISRDNAKNSLYLQMNSLRAEDTALYHCAVIMSPIPRYSGYDWAGDAFDIWGQGTMVTVSS VL: SSELTQDPAVSVALGQTVRITCQGDSLRSYYASWYQQKPGQVPILVIYDKNNRPSGIPDRFSGSSSGNTASLTITGAQAEDEADYYCNSRDSSGNAVVFGGGTKLTVL | 3.56 | 0.09 | 3.6 |  | 0.084 |  |  |
| COV2-2096 (antibody, V domains shown) VH: QVQLVQSGAEVKKPGASVKVSCKASGYTFGSFDINWVRQATGQGLEWMGRMNSNSGNTAYAQKFQGRVTMTRDTSTNTAYMELSSLRSEDTAMYYCARMRSGWPTHGRPDDFWGRGTLVTVSS VL: QSVLTQAPSASGTPGQRVTISCSGSNSNIGSYTINWYQQLPGTAPKLLIYGNDQRTSGVPDRFSGSKFGTSASLAISGLQSEDENNYYCAVWDDSLNGLVFGGGTKLTVL |  | 0.12 |  | < 0.2 | 0.29 | 59 |  |
| COV2-2165 (antibody, V domains shown) VH: EVQLVESGGGLVQPGGSLRLSCAASGLTVRSNYMTWVRQTPGKGLEWVSVIYSGGSTFYADSVKGRFTISRDNSKNTVYLQMNSLRAEDTAVYYCARDLVTYGLDVWGQGTTVTVSS VL: DIQLTQSPSFLSASVGDRVTITCRASQGISNYLAWYQQKPGTAPNLLIYAASTLQSGVPSRFSGSGSGTEFTLTISSLQPEDFATYYCQLLNSHPLTFGQGTRLEIK |  | 0.05 |  | < 0.4 | 0.185 | 332 |  |
| COV2-2391 (antibody, V domains shown) VH: QVQLVQSGAEVKKPGASVKVSCKASGYTFGSFDINWVRQATGQGLEWMGRMNSNSGNTAYAQKFQGRVTMTRDTSTNTAYMELSSLRSEDTAMYYCARMRSGWPTHGRPDDFWGRGTLVTVSS VL: QSVLTQAPSASGTPGQRVTISCSGSNSNIGSYTINWYQQLPGTAPKLLIYGNDQRTSGVPDRFSGSKFGTSASLAISGLQSEDENNYYCAVWDDSLNGLVFGGGTKLTVL |  | 0.1 |  |  | 0.045 |  |  |
| COV2-2196 (antibody, V domains shown, also called mAb COV2-2196) VH: QMQLVQSGPEVKKPGTSVKVSCKASGFTFMSSAVQWVRQARGQRLEWIGWIVIGSGNTNYAQKFQERVTITRDMSTSTAYMELSSLRSEDTAVYYCAAPYCSSISCNDGFDIWGQGTMVTVSS VL: not shown |  | 0.05 |  | < 0.1 | 0.029 | 15 |  |
| COV2-3025 (antibody, V domains shown) VH: EVQLVQSGPEVKKPGTSVKVSCKASGFTFMSSAVQWVRQARGQRLEWIGWIVIGSGNTNYAQKFQERVTITRDMSTSTAYMELSSLRSEDTAVYYCAAPYCSSISCNDGFDIWGQGTMVTVSS VL: EIVLTQSPGTLSLSPGERVTLSCRASQSVSSSYLAWYQQKPGQAPRLLIYGASSRATGIPDRFSGSGSGTDFTLTISRLEPEDFAVYYCQHYGSSRGWTFGQGTKVEIK | 3.7 |  | 0.21 |  | 0.031 | 37 | 0.0011 |
